Data taken from US10772928B2, “Modulation and detection of a neuronal alternative splicing regulatory network for treatment and diagnosis of neurological disorders” (The Governing Council of the University of Toronto, priority 2014, dated 2020).

T1: nSR100 (Mus musculus, UniProt Q8BKA3)
T1 construct: host or cells: mouse N2A cells
T1 sequence (Q8BKA3 1-608): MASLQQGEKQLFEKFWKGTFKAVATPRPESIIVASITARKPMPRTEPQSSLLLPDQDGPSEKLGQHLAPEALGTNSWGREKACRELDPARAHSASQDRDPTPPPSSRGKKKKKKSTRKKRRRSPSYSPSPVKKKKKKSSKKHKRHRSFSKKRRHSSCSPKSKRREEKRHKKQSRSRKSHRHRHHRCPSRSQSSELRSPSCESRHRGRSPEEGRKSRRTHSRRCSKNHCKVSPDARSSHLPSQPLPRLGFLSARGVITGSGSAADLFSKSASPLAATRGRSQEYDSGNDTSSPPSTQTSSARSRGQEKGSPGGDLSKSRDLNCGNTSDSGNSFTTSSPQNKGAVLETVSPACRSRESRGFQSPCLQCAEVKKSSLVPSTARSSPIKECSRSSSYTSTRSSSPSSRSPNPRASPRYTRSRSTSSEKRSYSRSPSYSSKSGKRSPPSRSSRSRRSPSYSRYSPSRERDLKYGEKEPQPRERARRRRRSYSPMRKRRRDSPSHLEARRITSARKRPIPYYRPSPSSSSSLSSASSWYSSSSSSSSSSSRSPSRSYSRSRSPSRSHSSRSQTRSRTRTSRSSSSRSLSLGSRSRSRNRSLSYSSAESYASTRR


Biological target: T1, nSR100
Assay: AP-MS nSR100 interaction partners from mouse N2A cells (Table 5)
Assay type: binding
Details: for AvgP (average of the SAINT scores) / MaxP (maximal SAINT score): bait Srrm4; for FoldChange between the prey Avg spectra of the bait and control purifications: bait Srrm4, 0.1 added to prevent division by 0; for AvgSpec (average number of spectra per replicate): bait Srrm4, 2 replicates; for Spectra (number of spectra for the prey in the purification of the bait): AP-MS; for SpecSum: bait Srrm4, sum of spectra over 2 replicates
[1] = bait Srrm4, biological replicate 1 (first number of the cell)
[2] = bait Srrm4, biological replicate 2 (second number of the cell)

Excerpt: By applying affinity purification coupled to mass-spectrometry (AP-MS), several interaction nSR100 partner proteins were detected that provide insight into mechanisms of post-translational regulation of nSR100 levels.

| AvgP (average of the SAINT scores) | MaxP (maximal SAINT score) | FoldChange between the prey Avg spectra of the bait and control purifications | AvgSpec (average number of spectra per replicate) | Spectra (number of spectra for the prey in the purification of the bait) [1] | Spectra (number of spectra for the prey in the purification of the bait) [2] | SpecSum | Molecule |
| --- | --- | --- | --- | --- | --- | --- | --- |
| 0.97 | 0.99 | 25 | 2.5 | 2 | 3 | 5 | Sfswap (protein, UniProt Q3USH5 1-945, looked up) Splicing factor, suppressor …: MYGAGGGRAKPERKGGVKEEAGPGGTGTGGNRVELLVFGYACKLFRDDERALAQEQGQHLIPWMGDPKILIDRYDGRGHLHDLSAYDAEYATWNRDYQLSEEEARVEALCDEERYLALHTDLLEEEARQEEEYKRLSEALAEDGNYSAVGFTYGSDYYDPSEPTEEEEPSKQREKNEAENLEENEEPFIAPLGLSVPSDVELPPTAKMHAIIERTANFVCKQGAQFEIMLKAKQARNSQFDFLRFDHYLNPYYKFIQKAMKEGRYTVLAESKNEEKKKSGPTSDNEEEDDEEDGSYLHPSLFASKKSSRLEELMKPLKVVDPDHPLAALVRKAQADSSAPAPPTADGTPAQPSQVEYTADSTVAAMYYSYYMLPDGTYCLAPPPPGIDVATYYSTLPAGVTVSSSPGVTTTVPPPPGTTPPPPPTTAEPSSGVTSTTTTTSALAPVAIIPPPPDIQPVIDKLAEYVARNGLKFETSVRAKNDQRFEFLQPWHQYNAYYEFKKQFFLQKEGGGSTQAASTAEEAPTETAVEESGEAGEDGAPEGMAETGGRGSGKKEAGSSKSTVDGKLVKASFAPISFAIKAKENDLLPLEKNRVKLDDDSEEDEESRECQESTSSVANPSPAAAPPSVAVEEKKPQLTQEELEAKQAKQKLEDRLAAAAREKLAQASKESKEKQLQAERKRKAALFLQTLKNPLPEAEVGKLEESTFGVEDTGVMPCPLLVGGRTLPILEGKPPERPSNRCRDPPREEEREKKKKKHKKRSRTRSRSPKYHSSSKPRSRSHSKAKHSLPSAYRTVRRSRSRSRSPRRRAHSPERRREERSVPTAYRMSGSPGVSRKRTRSRSPHEKKKKRRSRSRTKAKARSQSTSPSKQAAQRPSAHSAHSASISPVESRGSSQERSRGVSQEKDGQISSAIVSSVQSKITQDLMAKVRAMLAASKNLQTSAS |
| 0.97 | 0.99 | 25 | 2.5 | 3 | 2 | 5 | Rab5c (protein, UniProt P35278 1-216, looked up) Ras-related protein Rab-5C: MAGRGGAARPNGPAAGNKICQFKLVLLGESAVGKSSLVLRFVKGQFHEYQESTIGAAFLTQTVCLDDTTVKFEIWDTAGQERYHSLAPMYYRGAQAAIVVYDITNTDTFARAKNWVKELQRQASPNIVIALAGNKADLASKRAVEFQEAQAYADDNSLLFMETSAKTAMNVNEIFMAIAKKLPKNEPQNAAGAPGRTRGVDLQESNPASRSQCCSN |
| 0.98 | 1 | 35 | 3.5 | 2 | 5 | 7 | Fam76b (protein, UniProt Q80XP8 2-339, looked up) Protein FAM76B: AASALYACTKCTQRYPFEELSQGQQLCKECRIAHPIVKCTYCRSEFQQESKTNTICKKCAQNVKQFGTPKPCQYCNIIAAFIGTKCQRCTNSEKKYGAPQTCEQCKQQCAFDRKEEGRRKVDGKLLCWLCTLSYKRVLQKTKEQRKSLGSSHSNSSSSSLTEKDQHHSKHHHHHHHHHHRHSSGHHKVSSLSPEQEQGLWKQSHKSSAAIQNETPKKKPKLESKPSNGDSSSINQSADSGGTDNFVLISQLKEEVMSLKRLLQQRDQTILEKDKKLTELKADFQYQESNLRTKMNSMEKAHKETVEQLQAKNRELLKQVAALSKGKKFDKSGSVLTSP |
| 0.97 | 1 | 30 | 3 | 2 | 4 | 6 | Wdr11 (protein, UniProt Q8K1X1 1-1223, looked up) WD repeat-containing protein …: MLPYTVNFKVSARTLTGALNAHNKAAVDWGWQGLIAYGCHSLVVVIDSNTAQTLQVLEKHKADIVKVRWARENYHHNIGSPYCLRLASADVTGKIIVWDVAAGVAQCEIQEHVKPIQDVQWLWNQDASRDLLLAIHPPNYIVLWNADTGTKLWKKSYADNILSFSFDPFDPSHLTLLTSEGIVFISDFSPSKPPSGPGKKVYISSPHSSPAHNKLAAATGAKKALNKVKILITQEKPSADFVALNDCLQLAYLPSKRNHMLLLYPREILILDLEVNQTVGVIAIERTGVPFLQVIPCSQRDGLFCLHENGCITLRVRRSYNSICTTSNDEPDLDPVQELTYDLRSQCDAIRVTKTVRPFSMVCCPVNENAAALIVSDGRVMIWELKSAVCSRNARNSSGVSPLYSPVSFCGIPGGVLQNKLPDLSLDNMIGQSAIAGEEHPKGSILQEVHLKFLLTGLLSGLPSPQFAIRMCPPLTTKNIKTYQPLLAVGTSNGSVLVYHLTSGLLHKELSVHSCEVKGIEWTSLTSFLSFAASTPNNMGLVRNELQLVDLPTGRSTAFRGDRGNDESPIEMIKVSHLKQYLAVVFKDKPLELWDIRTCTLLREMSKSFPAITALEWSPSHNLKSLRKKQLATREAMARQTVVSDAELGAVESSVISLLQEAESKAELSQNISAREHFVFTDNDGQVYHLTVEGNSVKDSARIPPDGSMGSITCIAWKGDTLVLGDMDGNLNFWDLKARVSRGIPTHRSWVRKIRFAPGKGNQKLIAMYNDGAEVWDTKEVQMVSSLRSGRNVTFRILDVDWCTSDKVILASDDGCIRVLEMSMKSTCFRMDEQELVEPVWCPYLLVPRAALALKAFLLHQPWNGRYSLDISHIDYPENEEIKTLLQEQLHALSNDIKKLLLDPDFSLLQRCLLVSRLYGDESELHFWTVAAHYLHSLSQAKSGDTVVTKEGAPKDRLSNPLDICYDVLCENTYFQKFQLERVNLQEVKRSTYDHTRKCTDQLLLLGQTDRAVQLLLETSADNQHYYCDSLKACLVTTVTSSGPSQSTIKLVATNMIANGKLAEGVQLLCLIDKAADACRYLQTYGEWNRAAWLAKVRLNSEECADVLKRWVDHLCSPQVNQKSKALLVLLSLGCFVSVAETLHSMRYFDRAALFVEACLKYGAFEVSEDTEKLIAAIYADYARSLKSLGFRQGAVRFASKAGAAGRDLLNELGSTKEELTES |
| 0.97 | 0.98 | 3.3 | 16.5 | 16 | 17 | 33 | Grpel1 (protein, UniProt Q99LP6 28-217, looked up) GrpE protein homolog 1, …: CTATKQKNNGQNLDEDLGHCEPKTDPPSADKTLLEEKAKLEEQLRETMEKYKRALADTENLRQRSQKLVEEAKLYGIQGFCKDLLEVADILEKATQSVPKEEISNNNPHLKSLYEGLVMTEVQIQKVFTKHGLLRLDPIGAKFDPYEHEALFHTPVEGKEPGTVALVSKVGYKLHGRTLRPALVGVVKDA |
